Laboratory results published in patent publication US20090305399A1.
Like-named read-outs stand apart in the source and are kept apart here. Ends that are not written are not given here.

Legend:
Test in all cases: cell-based or functional assay
[1] = target: human Kv1.3 channel (human) (UniProt P22001)
[2] = target: human Kv1.1 channel (human) (UniProt Q09470)
[3] = target: human Kv1.3 channel (human) (UniProt P22001); remark: listed apart in the source

Chain of human Kv1.3 channel (human) (P22001 whole entry): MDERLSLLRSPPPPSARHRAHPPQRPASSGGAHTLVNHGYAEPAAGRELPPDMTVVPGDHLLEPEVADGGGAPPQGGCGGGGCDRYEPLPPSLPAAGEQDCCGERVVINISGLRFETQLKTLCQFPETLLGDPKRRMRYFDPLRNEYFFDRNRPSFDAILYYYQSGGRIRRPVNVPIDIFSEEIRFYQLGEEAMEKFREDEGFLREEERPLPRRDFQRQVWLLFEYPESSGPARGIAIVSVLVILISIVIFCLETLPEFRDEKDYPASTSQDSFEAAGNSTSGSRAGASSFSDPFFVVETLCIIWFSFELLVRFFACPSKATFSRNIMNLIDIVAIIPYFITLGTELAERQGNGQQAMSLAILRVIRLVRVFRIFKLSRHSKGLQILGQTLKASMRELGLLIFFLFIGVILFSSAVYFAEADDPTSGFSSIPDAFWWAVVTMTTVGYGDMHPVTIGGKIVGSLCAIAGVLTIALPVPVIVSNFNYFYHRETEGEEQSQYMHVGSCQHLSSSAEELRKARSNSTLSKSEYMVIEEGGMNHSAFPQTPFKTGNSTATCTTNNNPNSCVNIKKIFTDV
Chain of human Kv1.1 channel (human) (Q09470 whole entry): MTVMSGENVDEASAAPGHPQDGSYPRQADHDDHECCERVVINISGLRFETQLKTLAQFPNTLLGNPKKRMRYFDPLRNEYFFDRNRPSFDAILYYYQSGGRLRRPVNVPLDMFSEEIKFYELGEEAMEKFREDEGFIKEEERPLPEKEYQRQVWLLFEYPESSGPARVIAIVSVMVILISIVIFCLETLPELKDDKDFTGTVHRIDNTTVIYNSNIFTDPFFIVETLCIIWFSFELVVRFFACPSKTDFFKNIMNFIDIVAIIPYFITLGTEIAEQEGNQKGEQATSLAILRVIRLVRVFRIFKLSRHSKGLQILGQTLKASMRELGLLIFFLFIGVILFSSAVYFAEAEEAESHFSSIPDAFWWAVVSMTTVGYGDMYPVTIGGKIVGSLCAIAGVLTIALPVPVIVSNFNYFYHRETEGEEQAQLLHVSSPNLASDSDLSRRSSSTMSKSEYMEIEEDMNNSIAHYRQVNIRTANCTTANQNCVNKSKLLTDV

With 20k PEG-ShK (peptide) the WB/IFNg IC50 (human whole blood IFNg response) [1] was 65 pM and the WB/IL-2 IC50 (human whole blood IL-2 response) [1] was 46 pM.

GGGGS-Osk1 (peptide) was tested, and the WB/IFNg IC50 (human whole blood IFNg response) [1] was 2200 pM and the WB/IL-2 IC50 (human whole blood IL-2 response) [1] was 1360 pM.

With “E. coli-derived Shk[1-35]-L-Fc (Fc fusion)” the Kv1.3 IC50 by IWQ (nM), CHO/Kv1.3 cells [1] was 2.4 nM.

Fc-L5-ShK[2-35] (Fc fusion) showed an IC50 of block of outward potassium current, whole cell patch clamp [1] of 100 pM.

Work on “E. coli-derived ShK[2-35]-L-Fc (Fc fusion)” yielded a Kv1.3 IC50 by IWQ (nM), CHO/Kv1.3 cells [1] of 4.9 nM.

With OSK1 (wild-type) (peptide) the Kv1.1 IC50, whole cell patch clamp ePhys [2] was 202 pM, the Kv1.3 IC50, whole cell patch clamp ePhys [1] was 39 pM and the Kv1.3 Selectivity (=Kv1.1/Kv.3 IC50) [1] was 5 fold.

“PEG-Fc-L10-SHK(2-35), Pool # 2 (Fc fusion)” showed an IC50 Sustained [1] of 158 pM.

Work on “PEG-Fc-L10-SHK(2-35), Pool # 3 (Fc fusion)” yielded an IC50 Sustained [1] of 175 pM.

In the case of Fc-L25-ShK[2-35] (Fc fusion), the IC50, whole cell patch clamp on HEK293/Kv1.3 cells [1] is reported as 150 pM.

20k PEG-OSK1[Ala29, 1Nal34] (peptide) showed a WB/IFNg IC50 (human whole blood IFNg response) [1] of 81 pM and a WB/IL-2 IC50 (human whole blood IL-2 response) [1] of 49 pM.

With PEG-Fc-L10-OSK1, Pool # 3 (Fc fusion) the IC50 Sustained [1] was 256 pM.

“E. coli-derived Fc-L-ShK[2-35] (Fc fusion)” gave a Kv1.3 IC50 by IWQ (nM), CHO/Kv1.3 cells [1] of 2.8 nM and a Kv1.3 IC50 by WCVC (nM), HEK293/Kv1.3 cells [1] of 1.3 nM.

“E. coli-derived Fc-L-ShK[1-35] (Fc fusion)” gave a Kv1.3 IC50 by WCVC (nM), HEK293/Kv1.3 cells [1] of 1.4 nM.

With synthetic OSK1 toxin peptide the IC50 of block of outward potassium current, whole cell patch clamp [1] was 39 pM.

Work on E. coli-derived Fc-L-OSK1 (Fc fusion) yielded a Kv1.3 IC50 by WCVC (nM), HEK293/Kv1.3 cells [1] of 3.2 nM.

With PEG-Fc-L10-OSK1, Pool # 2 (Fc fusion) the IC50 Sustained [1] was 332 pM.

Work on “CHO-derived Fc-L10-ShK[2-35] (Fc fusion)” yielded an IC50 of block of outward potassium current, whole cell patch clamp [1] of 115 pM.

OSK1 analogue E16K, K20D (peptide) gave a WB/IFNg IC50 (human whole blood IFNg response) [1] of 1320 pM and a WB/IL-2 IC50 (human whole blood IL-2 response) [1] of 1580 pM.

Molecule SCIDTIPKSRCTAFQCKHSMKYRLSFCRKTCGTC (not fully specified; ends and bridges not checked) [synthetic ShK[2-35]] has an IC50 of block of outward potassium current, whole cell patch clamp [3] of 49 pM.
